Measured values taken from article PMC5612608 (Contrast Media & Molecular Imaging, 2017).

Assays:
[1] = Labeling stability: EDTA challenge and PBS, analysed by ITLC; format: physicochemical; conditions: chemical (label) stability, ITLC eluted with citric acid 0.2 M pH 2.0, average ± SD
Description: Radiolabeling with ^57Co was performed using 3.8–10 nmol (aq. 1 nmol/μL) of NOTA-PEG2-RM26 buffered with 80 μL ammonium acetate (0.2 M, pH 5.5). The mixture was incubated with ^57Co cobalt chloride (10–50 MBq) for 30 min at 60°C. For ^55Co labeling, 1.3 nmol of NOTA-PEG2-RM26 buffered with 80 μL ammonium acetate (0.2 M, pH 5.5) was heated by microwave irradiation for 1 min at 850 W in a sealed vial using a conventional microwave oven (Samsung MW82N-B). […] Labeling yield, radiochemical purity, and in vitro stability were analyzed using instant thin-layer chromatography (ITLC) strips (Agilent Technologies) eluted with citric acid (0.2 M, pH 2.0). In this system, free ^57/55Co migrates with the eluent front (Rf = 1.0) and the radiolabeled construct stays on the application point (Rf = 0.0). The system was previously validated by sodium dodecyl sulfate polyacrylamide gel electrophoresis (SDS-PAGE) and radio-HPLC [7, 8].

PC-3 cells = test: Cellular processing (binding and internalization, acid wash) by PC-3 cells; format: cell-based, human; conditions: 1 nM, 37°C, 24 h incubation, 3 dishes
Description: The cells were cultured in RPMI-1640 media supplemented with 10% fetal calf serum, PEST (penicillin 100 IU/mL, streptomycin 100 μg/mL), and 2 mM L-glutamine (all from Biochrom AG, Berlin, Germany). This medium is referred to as complete medium in the text. Trypsin-EDTA (0.05% trypsin, 0.02% EDTA in buffer; Biochrom AG) was used for cell detachment. All in vitro experiments were performed in triplicate. […] At predetermined time points (1, 2, 4, 8, and 24 h after the start of incubation) the medium from 3 dishes was discarded and the cells were washed with ice-cold serum-free medium. The membrane-bound and internalized radioactivity were collected using the acid wash method described earlier.

in vivo [2] = test: in vivo; parameters: species or system mouse; conditions: female, NMRI, mouse, in vivo, iv, 45 pmol, total radioactivity
Description: (§1) The animal experiments were planned and performed in accordance with the national legislation on the protection of laboratory animals, and the study plans were approved by the local committee for animal research ethics. Groups of 3-4 mice were used per data point. Biodistribution studies were performed on female immunocompetent NMRI mice (weight: 30 ± 2 g), female Balb/c nu/nu (inoculated 10 million PC-3 cells/mouse 21 days before the experiment, weight 17 ± 2 g), and male inbred immunodeficient NOD-SCID mice (5 million PC-3 cells/mouse, 35 days before the experiment, 31 ± 2 g). […] The injected radioactivity was adjusted to 30 kBq per animal. […] The mice were euthanized at 30 min pi by intraperitoneal injection of Ketalar-Rompun solution (10 mg/mL Ketalar and 1 mg/mL Rompun; 20 μL/g body weight). Blood samples were collected by cardiac puncture. Lung, liver, spleen, pancreas, stomach, small intestines, kidneys, muscle, bone, and the rest of intestines with their content were collected. The organs were weighed and their radioactivity content was measured in a gamma-counter. The data were corrected for background radiation. The organ uptake values were expressed as a percentage of injected dose per gram of tissue (% ID/g), except for the gastrointestinal tract and the remaining carcass, which were calculated as % ID per whole sample.

murine GRPRs = test: in vivo; parameters: species or system mouse; conditions: female NMRI mice, 30 min pi, 45 pmol, coinjected 20 nmol unlabeled peptide
Description: as §1

PC-3 xenografts = test: In vivo binding specificity in PC-3 xenografted Balb/c nu/nu mice; parameters: species or system mouse; conditions: female Balb/c nu/nu mice with subcutaneous PC-3 tumors, 3 h pi, 45 pmol, coinjected 20 nmol
Description: (§2) The animal experiments were planned and performed in accordance with the national legislation on the protection of laboratory animals, and the study plans were approved by the local committee for animal research ethics. Groups of 3-4 mice were used per data point. Biodistribution studies were performed on female immunocompetent NMRI mice (weight: 30 ± 2 g), female Balb/c nu/nu (inoculated 10 million PC-3 cells/mouse 21 days before the experiment, weight 17 ± 2 g), and male inbred immunodeficient NOD-SCID mice (5 million PC-3 cells/mouse, 35 days before the experiment, 31 ± 2 g).
(§3) Tumor targeting specificity and biodistribution over time were studied on PC-3 xenografted female Balb/c nu/nu and male NOD-SCID mice, respectively. […] An additional group of animals was coinjected with an excess of nonlabeled peptide (20 nmol). The mice were sacrificed at 3 h pi by intraperitoneal injection of Ketalar-Rompun solution (10 mg/mL Ketalar and 1 mg/mL Rompun; 20 μL/g body weight). […] The mice were euthanized at 3 and 24 h pi by cervical dislocation. Tumors, blood, and other organs of interest were collected, weighed, and measured on radioactivity content in a gamma-counter. […] The organ uptake values were expressed as a percentage of injected dose per gram of tissue (% ID/g), except for the gastrointestinal tract and the remaining carcass, which were calculated as % ID per whole sample.

in vivo [3] = conditions: male, NOD-SCID, mouse, iv, 16.8 pmol, total radioactivity
Description: as §2, §3

Question: What does the source list for CC(C)C[C@H](NC(=O)C[C@H](O)[C@H](CC(C)C)NC(=O)[C@H](Cc1c[nH]cn1)NC(=O)CNC(=O)[C@@H](NC(=O)[C@H](C)NC(=O)[C@H](Cc1c[nH]c2ccccc12)NC(=O)[C@H](CCC(N)=O)NC(=O)[C@@H](Cc1ccccc1)NC(=O)COCCOCCNC(=O)CN1CCN(CC(=O)O)CCN(CC(=O)O)CC1)C(C)C)C(N)=O [^57Co-NOTA-PEG2-RM26]?
Answer: Release in the presence of excess EDTA ([1]; 1000-fold molar excess of EDTA disodium salt, 1 h, room temperature): 0.7 ± 0.2%; Release in PBS ([1]; PBS, 1 h incubation at room temperature): 0.07 ± 0.11%; Internalized fraction of cell-associated radioactivity (PC-3 cells): 12%; tissue uptake at 0.5 h (in vivo [2]; kidney retention): 6 ± 2 %ID/g; tissue uptake at 0.5 h (in vivo [2]; liver uptake): 0.65 ± 0.05 %ID/g; Accumulated radioactivity in receptor-positive organs (pancreas, small intestine, stomach) on coinjection of unlabeled peptide (murine GRPRs): significantly lower; Tumor uptake and uptake in GRPR-expressing organs on coinjection of excess unlabeled peptide (PC-3 xenografts): inhibited; tissue uptake at 3 h (in vivo [3]): 0.05 ± 0.02 %ID/g
